Results: patent publication US20250297009A1 (BIOTHEUS, published 2025)

Columns and labels:
[1] = target: T1, human PD-1 (Uniprot: Q15116) on cells (human, UniProt Q15116 25-288); experiment: flow cytometry on CHO-S cells overexpressing human PD-1
T1 construct: whole, on cells; The cell type is named under assay or readout; also called CHO-huPD-1 cells; CHO cells overexpressing human PD-1
From the text: (§1) By transfecting human PD-1 (Uniprot: Q15116), cynomolgus monkey PD-1 (Uniprot: BOLAJ3) cDNA pCHO1.0 vector (purchased from Invitrogen) into CHO-S cellsand following with pressure screening, CHO-S cells overexpressing human PD-1 (CHO-huPD-1 cells) and CHO-S cells overexpressing cynomolgus monkey PD-1 (CHO-cynoPD-1 cells) were produced. The overexpressed cells after expansion culture were adjusted to the appropriate cell density and added to a 96-well flow plate, centrifuged and then added with gradiently diluted samples, and incubated at 4° C. for 30 minutes. Washing was performed twice with PBS, fluorescent secondary antibody correspondingly diluted to the appropriate concentration was added, incubated at 4° C. for 30 minutes, and washed twice with PBS. The cells were resuspended in PBS, and detected on a CytoFlex flow cytometer, and the corresponding MFI was calculated. Graphpad software was used for graphical analysis to obtain EC₅₀ values.

[2] = target: T2, cynomolgus monkey PD-1 (Uniprot: BOLAJ3 as printed) on CHO-S cells (cynomolgus monkey); experiment: flow cytometry on CHO-S cells overexpressing cynomolgus monkey PD-1
T2 construct: whole, on cells; also called CHO-cynoPD-1 cells; CHO cells overexpressing cynomolgus monkey PD-1
From the text: as §1

[3] = target: T1, human PD-1 (Uniprot: Q15116) on cells; experiment: flow cytometry, competition with bio-human PD-L1-Fc (0.5 µg/mL) on CHO-huPD-1 cells
[4] = target: T1, human PD-1 (Uniprot: Q15116) on cells; experiment: flow cytometry on activated human primary T cells, fluorescent secondary antibody
[5] = target: T1, human PD-1 (Uniprot: Q15116) on cells; experiment: flow cytometry on CHO cells overexpressing human PD-1, fluorescent secondary antibody
[6] = target: T3, Human PD-1-his protein (human PD-1 extracellular domain with his tag) (human, UniProt Q15116 25-170); experiment: BLI (ForteBio), antibody loaded on AHQ sensor, 100 nM PD-1-his in solution, monovalent, 1:1 model
T3 construct: also called PD-1-his antigen; not shown: his tag
Procedure: (§2) The binding dissociation constant (KD) values of the antibody obtained in Example 1 binding to human and cynomolgus monkey PD-1 were determined by biofilm optical interference technology (ForteBio). Fortebio affinity determination was carried out according to the existing method (Este, P et al. High throughput solution-based measurement of antibody-antigen affinity and epitope binning. Mabs, 2013.5(2): p. 270-8), and the extracellular amino acid sequences of human and cynomolgus monkey PD-1 were as set forth in SEQ ID NO:20 and 21, respectively.
(§3) The sensor loaded with antibody was exposed to 100 nM PD-1-his antigen until the plateau phase, and then the sensor was transferred to the assay buffer for at least 2 minutes for dissociation rate measurement. The kinetic analysis was performed using a 1:1 binding model.

[7] = target: T4, Cynomolgus monkey PD-1-his protein (cynomolgus monkey PD-1 extracellular domain with his tag) (cynomolgus monkey, UniProt Q15116 25-165 (human entry)); experiment: as above
T4 construct: also called Cyno PD-1-his; not shown: his tag
T4 chain: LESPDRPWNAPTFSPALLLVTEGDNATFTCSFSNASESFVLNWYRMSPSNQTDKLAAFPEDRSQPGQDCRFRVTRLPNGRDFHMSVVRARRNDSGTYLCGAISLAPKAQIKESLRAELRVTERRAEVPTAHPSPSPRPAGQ
Procedure: as §2, §3

[8] = target: T1, human PD-1 (Uniprot: Q15116) on cells; experiment: flow cytometry blocking assay on CHO cells overexpressing human PD-1; blocked ligand: bio-human PD-L1-Fc, SA-PE detection
[9] = target: T2, cynomolgus monkey PD-1 (Uniprot: BOLAJ3 …); experiment: flow cytometry on CHO cells overexpressing cynomolgus monkey PD-1 according to legend paragraph 157 and Example 11 (the title on the sheet prints CHO-huPD-1), fluorescent secondary antibody

T1 sequence (Q15116 25-288, one chain of several): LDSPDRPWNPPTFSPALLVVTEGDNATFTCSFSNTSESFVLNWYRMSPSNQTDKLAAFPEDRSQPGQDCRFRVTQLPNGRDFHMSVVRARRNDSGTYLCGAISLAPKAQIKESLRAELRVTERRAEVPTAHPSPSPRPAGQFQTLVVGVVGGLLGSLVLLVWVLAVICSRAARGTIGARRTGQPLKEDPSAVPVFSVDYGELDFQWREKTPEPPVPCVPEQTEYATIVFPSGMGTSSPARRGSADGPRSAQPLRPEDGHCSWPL
T3 sequence (Q15116 25-170): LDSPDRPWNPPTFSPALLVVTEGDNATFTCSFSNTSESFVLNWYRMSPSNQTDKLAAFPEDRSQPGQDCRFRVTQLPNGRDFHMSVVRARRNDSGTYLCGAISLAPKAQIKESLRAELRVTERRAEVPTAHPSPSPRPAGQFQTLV

EC50 [1]: 3.79 nM
EC50 [2]: 4.32 nM
IC50 [3]: 3.74 nM
EC50 (read off the curve) [4]: ~1 nM
EC50 (read off the curve) [5]: ~7 nM
Kd [6]: 0.453 nM
Kd [7]: 0.201 nM
IC50 (read off the curve) [8]: ~7 nM
EC50 (read off the curve) [9]: ~6 nM
B1: anti-PD-1 antibody ADI-54872 (antibody, human IgG1, kappa, L234A L235A, V domains shown)
VH: QVQLVQSGAEVKKPGASVKVSCKASGYTFTEYYIYWVRQAPGQGLEWIGGINPSNGGTNFNEKFKPRVTMTVDTSTSTAYMELSSLRSEDTAVYYCTVRDFRFDKGFKYWGQGTLVTVSS
VL: EIVLTQSPATLSLSPGERATLSCRASKSVSTSGLNYVHWYQRKPGQAPRLLIYLGSYLDSGVPARFSGSGSGTDFTLTISSLEPEDFAVYYCQQSWELPLTFGGGTKVEIKR
notes: Full-length IgG (human IgG1 LALA constant region), expressed in HEK293 and purified on Protein A
